Experimental findings from patent publication US10709762B2, “Use of M-CSF for preventing or treating myeloid cytopenia and related complications” (priority 2013, dated 2020) are described below.

The test system of experiment [1] is PU.1 expression in sorted HSC. Description: Quantitative RT-PCR of PU.1 expression in sorted HSC in culture. In kind it is cell-based, mice. The settings on record: 16 h in culture with cytokine, 100 ng/ml. As for the experimental part:
CD150+CD34− KSLF HSC or CD150+CD34− CD48− KSLF HSC (single cells) were sorted into S-clone SF-03 medium (Sanko Jyunyaku) with 10% FBS supplemented with 100 U/ml penicillin and […] streptomycin (both Invitrogen) and cultivated in uncoated U-Shape 96 well plates (Greiner) in 100 μl SCM, 20 ng/ml rSCF, 50 ng/ml rTPO+/−100 ng/ml rM-CSF or 100 ng/ml rGM-CSF or 100 ng/ml rG-CSF. All cytokines were murine and from PeproTech. Cell viability was analyzed by AnnexinV and Propidium iodide FACS staining^35.
Total RNA was isolated and reverse transcribed with μMACS™ ONE-STEP T7 template kit (Miltenyi Biotec) and analysed by quantitative real-time PCR using TAQMAN® Universal PCR Master Mix and a 7500 Fast Real Time PCR System sequence detection system (both Applied Biosystem), following the manufacturers' instructions.

Experiment [2] concerns Pseudomonas aeruginosa. Description: Survival after Pseudomonas aeruginosa infection following HS/PC transplantation. In kind it is in vivo, mice. The settings on record: P. aeruginosa infection on Day8 after irradiation and HS/PC transplantation; three injections of 10 μg M-CSF. As for the experimental part:
(§1) To study the functional impact of MCSF mediated HSC commitment during infections, two separate series of experiments were performed. In all experiments, after lethal irradiation of recipients, 2500 HS/PC with 200,000 cKit-carrier cells from donors were grafted.
(§2) Uninfected mice that received HS/PC transplants served as controls for efficient life saving transplantation (black line; FIGS. 8A, 8B and FIGS. 10A, 10B; n=8). Two other groups of mice received either 3 injections of MCSF (rhMCSF or Bacculo virus produced mMCSF) or PBS on the day of HS/PC transplantation.
(§3) One-week post transplantation these mice were challenged with lethal doses of either the bacteria Pseudomonas aeruginosa or the opportunistic fungus Aspergillus fumigatus.
CD45.1 and C57Bl/6 mice were obtained from Charles River. 10-14 weeks old sex-matched CD45.2 recipients were reconstituted as described^3 with bone marrow derived KSL (c-Kit(CD117)+, Sca+, Lin−) HS/PC isolated from 6-8 weeks old CD45.1. For in vivo injections the indicated concentrations of M-CSF and/or sorted cells were injected in 100-200 μl of PBS into the retro-orbital sinus. For HS/PC transplantation 2500 KLS HS/PC were sorted from CD45.1 mice and mixed with 200,000 cKit− CD45.2 or cKit−, Terr119+ carrier cells prior to injection into lethally irradiated (160 kV, 25 mA, 6.31 Gy) CD45.2 recipient mice. […]

Experiment [3] deals with Aspergillus fumigatus. The experiment can be described thus: Survival after Aspergillus fumigatus infection following HS/PC transplantation. The settings on record: A. fumigatus infection on D8 after irradiation and HS/PC transplantation; three injections of 10 μg M-CSF. The format is in vivo, mice. The protocol:
as §1, §2, §3
Each mouse received three injections of 10 μg M-CSF: 1 h before HS/PC transplantation; 6 h and 18 h post-transplantation. Human M-CSF (rhMCSF, Chiron Corporation Inc., USA, now part of Novartis AG) and Mouse M-CSF was expressed in baculovirus (Bac. virus mMCSF^56) were used for the study.
Aspergillus fumigatus FGSC 1100 was provided by the Centre International de Ressources Microbiennes—Champignons Filamenteux (CIRM-CF, Marseille, France). For each experiment, cultures were grown on Malt agar medium (2% malt extract, 2% Bacto-agar DIFCO) for 5 days at 25° C. Conidial suspension was prepared in sterile saline according to Bitmansour et al. (2002)^55. […]

The test system of experiment [4] is Pseudomonas aeruginosa. Description: Bacterial tissue load quantification. In kind it is in vivo, mice. Conditions: 18 h after infection. The protocol: The infected mice were killed; the organs (spleen, lungs, liver and heart) were harvested and weighed. To determine CFUs per gram of tissue serial dilutions of tissue homogenates were prepared in PBS and plated on Pseudomonas Isolation Agar (PIA) (Difco laboratories) supplemented with appropriate antibiotics and incubated overnight at 37° C. The colonies were counted after 16-24 h.
For analysis of bacterial load, mice were killed at 18 h after infection, tissue homogenates were prepared from spleen, lungs, liver and heart, and were plated to determine CFU.

Experiment [5] has as its system Aspergillus fumigatus. Description: Fungal culture of infected organs. The format is in vivo. The settings on record: lungs, liver and heart; 48 h after infection; versus untreated mice. The protocol:
The organs (lungs, liver, heart and spleen) were harvested, weighed and tissue homogenates were prepared in PBS. The homogenates were serially diluted and 200 μL or each dilution was plated on Sabouraud dextrose agar (DIFCO). The plates were incubated at 25° C. and pictures were taken after 3-5 days.
Furthermore in the mice succumbing to infection death was slightly delayed from D9-D14 in untreated mice to D10-D15 in the rhMCSF treated group. For analysis of fungal load, mice were killed at 48 h after infection and tissue homogenates were prepared from lungs, liver and heart. […] Fungal tissue cultures were incubated beyond 96 h to verify the typical colony morphology of A. fumigatus.

B1: GM-CSF: murine granulocyte-macrophage colony-stimulating factor from PeproTech (protein, UniProt P01587 18-141, looked up)
Granulocyte-macrophage …: APTRSPITVTRPWKHVEAIKEALNLLDDMPVTLNEEVEVVSNEFSFKKLTCVQTRLKIFEQGLRGNFTKLKGALNMTASYYQTYCPPTPETDCETQVTTYADFIDSLKTFLTDIPFECKKPGQK
In the case of B1, in experiment [1], the “PU.1 expression in FACS purified HSC” value was “not”.

B2: G-CSF: murine granulocyte colony-stimulating factor from PeproTech (protein, UniProt P09920 31-208, looked up)
Granulocyte …: VPLVTVSALPPSLPLPRSFLLKSLEQVRKIQASGSVLLEQLCATYKLCHPEELVLLGHSLGIPKASLSGCSSQALQQTQCLSQLHSGLCLYQGLLQALSGISPALAPTLDLLQLDVANFATTIWQQMENLGVAPTVQPTQSAMPAFTSAFQRRAGGVLAISYLQGFLETARLALHHLA
Consider B2, for which the “PU.1 expression in FACS purified HSC” value in experiment [1] was “not”.

B3: mouse MCSF: Mouse M-CSF expressed in baculovirus (protein, UniProt P07141 33-552, looked up)
Macrophage colony-stimulating …: KEVSEHCSHMIGNGHLKVLQQLIDSQMETSCQIAFEFVDQEQLDDPVCYLKKAFFLVQDIIDETMRFKDNTPNANATERLQELSNNLNSCFTKDYEEQNKACVRTFHETPLQLLEKIKNFFNETKNLLEKDWNIFTKNCNNSFAKCSSRDVVTKPDCNCLYPKATPSSDPASASPHQPPAPSMAPLAGLAWDDSQRTEGSSLLPSELPLRIEDPGSAKQRPPRSTCQTLESTEQPNHGDRLTEDSQPHPSAGGPVPGVEDILESSLGTNWVLEEASGEASEGFLTQEAKFSPSTPVGGSIQAETDRPRALSASPFPKSTEDQKPVDITDRPLTEVNPMRPIGQTQNNTPEKTDGTSTLREDHQEPGSPHIATPNPQRVSNSATPVAQLLLPKSHSWGIVLPLGELEGKRSTRDRRSPAELEGGSASEGAARPVARFNSIPLTDTGHVEQHEGSSDPQIPESVFHLLVPGIILVLLTVGGLLFYKWKWRSHRDPQTLDSSVGRPEDSSLTQDEDRQVELPV
Consider B3, for which the survival in the experiment with Pseudomonas aeruginosa [2] is 87.5%; in the experiment with Aspergillus fumigatus [3] it was 60%.

B4: rhMCSF: Human M-CSF (rhMCSF, Chiron Corporation Inc., USA, now part of Novartis AG) (protein, UniProt P09603 33-554, looked up)
Macrophage colony-stimulating …: EEVSEYCSHMIGSGHLQSLQRLIDSQMETSCQITFEFVDQEQLKDPVCYLKKAFLLVQDIMEDTMRFRDNTPNAIAIVQLQELSLRLKSCFTKDYEEHDKACVRTFYETPLQLLEKVKNVFNETKNLLDKDWNIFSKNCNNSFAECSSQDVVTKPDCNCLYPKAIPSSDPASVSPHQPLAPSMAPVAGLTWEDSEGTEGSSLLPGEQPLHTVDPGSAKQRPPRSTCQSFEPPETPVVKDSTIGGSPQPRPSVGAFNPGMEDILDSAMGTNWVPEEASGEASEIPVPQGTELSPSRPGGGSMQTEPARPSNFLSASSPLPASAKGQQPADVTGTALPRVGPVRPTGQDWNHTPQKTDHPSALLRDPPEPGSPRISSLRPQGLSNPSTLSAQPQLSRSHSSGSVLPLGELEGRRSTRDRRSPAEPEGGPASEGAARPLPRFNSVPLTDTGHERQSEGSFSPQLQESVFHLLVPSVILVLLAVGGLLFYRWRRRSHQEPQRADSPLEQPEGSPLTQDDRQVELPV
Regarding B4, the survival with Pseudomonas aeruginosa [2] is 50%; with Aspergillus fumigatus [3], 40%. For the same molecule, the moribund mice entry in the experiment with Pseudomonas aeruginosa [4] is reported as “two to three of the 10 mice”. Further, the “tissue load of bacteria” value in the experiment on Pseudomonas aeruginosa [4] (spleen, lungs, liver and heart, versus untreated mice) is given as “significant decrease”. Also, the “tissue load of fungal colonies” value with Aspergillus fumigatus [5] is given as “significant decrease”.
